The target of this assay is recombinant full-length IsdB, Q2FHV2. Kind of assay: ELISA. The settings on record: chain shown with the change. Background: In an ELISA, binding on a coated surface is turned into a signal by an enzyme label.

B1: D4-10-N1 antibody (human IgG) H:Y52A; H:F53A (protein)
chain 1: QVQLQESGPGLVKPSETLSLICTVSGGSISSSSYYWGWIRQTPERNLEWIGIIAASGTTYYNPSLQSRVSMSLDRSTNRFSLRLSSVTAADTAIYYCAKPKSRDRGGPGDDYFGMDVWGQGIMVTVSS
chain 2: DIQLTQSPSFLSASVADRVTITCRASQAVRSSLAWYQQKPGKAPQLLIYSASTLENGVSSRFSGSGPGTEFTLTISSLQPEDVGTYYCQQLNTYPFTFGPGTKVEIK
On to B1, for which the percent of parent turned out to be 9%.

These data come from publication PMC5120205.
